No end group written: not given here. *: point of attachment. 5FAM = O=C1OC2(c3ccc(O)cc3Oc3cc(O)ccc32)c2ccc(C(=O)*)cc21; TQ2 = quencher; TQ3 = quencher
Target: T1, MMP14 in the MDA-MB-231-derived extracellular vesicles (Homo sapiens, UniProt P50281)
T1 construct: in terms of intact MMP14 with a molecular weight of 70 kDa
Experiment: Digital detection through MMP14 activity of MDA-MB-231-derived extracellular vesicles captured on Tim4-immobilized magnetic particles
Assay type: biochemical
Procedure: Magnetic particles included in PS Capture (trademark) Exosome Flow Cytometry Kit (manufactured by FUJIFILM Corporation) were used as magnetic particles. In this kit, binding of an extracellular vesicle to a Tim4-immobilized magnetic particle is utilized.
800 μL of Exosome Capture Beads were aliquoted in a 1.5 mL microtube, vortexed for 5 seconds, spun down in a benchtop centrifuge, and then placed on a magnetic stand. After still standing for 1 minute, the supernatant was removed by pipetting. 1 mL of x1 WB (+Enhancer) prepared from x10 Washing Buffer and x100 Exosome Binding Enhancer included in the kit was added to the residue, the mixture was vortexed for 5 seconds, spun down in a benchtop centrifuge, and then placed on a magnetic stand. After still standing for 1 minute, the supernatant was removed by pipetting. This operation was repeated three times.
800 μL of the buffer (4) was added to the magnetic particle pellets, and the mixture was vortexed for 30 seconds to provide a homogeneous magnetic particle suspension. 60 μL of the suspension was aliquoted into each of twelve 1.5 mL microtubes.
The concentration of the solution is 4 μg/mL. […] Further, the concentration of the x1/5 solution was set to be the highest concentration, and 10-fold dilution was performed in four stages. Thus, 10-fold dilution samples in a total of five stages were obtained.
The magnetic particle suspension that had been aliquoted in each amount of 60 μL in the section “(Preparation of Particles)” was vortexed for 5 seconds, spun down in a benchtop centrifuge, and then placed on a magnetic stand. After still standing for 1 minute, the supernatant was removed by pipetting.
After that, the above-mentioned mixed solution was spun down in a benchtop centrifuge, then placed on a magnetic stand, and left to stand still for 1 minute. After that, the supernatant was removed by pipetting, 300 μL of the buffer (4) was added to the residue, and the mixture was vortexed for 5 seconds. The mixture was spun down in a benchtop centrifuge, then placed on a magnetic stand, and left to stand still for 1 minute. The same operation was further repeated twice.
For detection of MMP14 activity, 1 mM Custom #1 and Custom #2 were diluted with the buffer (4) to prepare MMP14 detection solutions containing 5 μM Custom #1 and Custom #2, respectively.
The supernatant of the mixed solution of the magnetic particles and the extracellular vesicles subjected to the washing was removed by pipetting, and 60 μL of each of the MMP14 detection solutions was added to each of the magnetic particle pellets to prepare a reaction solution for wells.
Magnosphere (trademark) MS300/Streptavidin (manufactured by JSR Corporation) (hereinafter abbreviated as “MS300S”) was used as magnetic particles. The magnetic particles were modified with Tim4 through use of Biotin-labeled Exosome Capture included in MagCapture (trademark) Exosome Isolation Kit PS Ver. 2 (manufactured by FUJIFILM Corporation) (hereinafter abbreviated as “PS2”) to prepare Tim4-immobilized magnetic particles.
10 μL of Biotin-labeled Exosome Capture was added to the suspension, and the mixture was vortexed for 5 seconds so that the contents were mixed. The mixture was subjected to a reaction for 10 minutes while the contents were mixed by inversion at room temperature with a rotator. After that, the resultant was spun down in a benchtop centrifuge, and then placed on a magnetic stand. After still standing for 1 minute, the supernatant was removed by pipetting. 500 μL of x1 I/WB (±Enhancer) was added to the residue, and the mixture was vortexed for 5 seconds, spun down in a benchtop centrifuge, and then placed on a magnetic stand. After still standing for 1 minute, the supernatant was removed by pipetting. This operation was further repeated twice. […]

[1] = Table 56, Particle MS300C, MB231 Present, 24 hours at 23° C.
[2] = Table 56, Particle Simoa, MB231 Present, 24 hours at 23° C.
[3] = Example 49, PS Capture Tim4 particles, 30° C., 4 h
[4] = Table 52, particles modified with Tim4, MB231 concentration x1/5, 4 hr
[5] = Table 52, particles modified with Tim4, MB231 concentration x1/50, 4 hr
[6] = Table 52, particles modified with Tim4, MB231 concentration x1/500, 4 hr
[7] = Table 52, particles modified with Tim4, MB231 concentration x1/5,000, 4 hr
[8] = Table 52, particles modified with Tim4, MB231 concentration x1/50,000, 4 hr
[9] = Table 53, BG subtracted, MB231 concentration x1/50, 4 hr
[10] = Table 53, BG subtracted, MB231 concentration x1/500, 4 hr
[11] = Table 53, BG subtracted, MB231 concentration x1/5,000, 4 hr
[12] = Table 53, BG subtracted, MB231 concentration x1/50,000, 4 hr
[13] = Table 53, BG subtracted, MB231 concentration x1, 4 hr
[14] = Example 50, MS300S Tim4 particles, 30° C., 4 h
[15] = Table 53, BG subtracted, MB231 concentration x1/5, 4 hr
[16] = Table 54, particles immobilized with Tim4, MB231 concentration x1/5, 4 hr
[17] = Table 54, particles immobilized with Tim4, MB231 concentration x1/25, 4 hr
[18] = Table 54, particles immobilized with Tim4, MB231 concentration x1/125, 4 hr
[19] = Table 54, particles immobilized with Tim4, MB231 concentration x1/625, 4 hr
[20] = Table 54, particles immobilized with Tim4, MB231 concentration x1/3,125, 4 hr
[21] = Table 54, particles immobilized with Tim4, MB231 concentration x1/15,625, 4 hr
[22] = Table 54, particles immobilized with Tim4, MB231 concentration x1, 4 hr
[23] = Table 55, BG subtracted, MB231 concentration x1/5, 4 hr
[24] = Table 55, BG subtracted, MB231 concentration x1/25, 4 hr
[25] = Table 55, BG subtracted, MB231 concentration x1/125, 4 hr
[26] = Table 55, BG subtracted, MB231 concentration x1/625, 4 hr
[27] = Table 55, BG subtracted, MB231 concentration x1/3,125, 4 hr
[28] = Table 55, BG subtracted, MB231 concentration x1/15,625, 4 hr
[29] = Table 55, BG subtracted, MB231 concentration x1, 4 hr

TAMRA-GGPLGLAGGK(TQ3) ({TAMRA}-GGPLGLAGGK(TQ3)) [Custom #2T]
Particle Expected value λ [1]: 0.2937
Particle Positive ratio [1]: 0.2545
Particle Expected value λ [2]: 0.07748
Particle Positive ratio [2]: 0.07456

[5-FAM]GRIGFLRTAK(TQ2)[OH] (5FAM-GRIGFLRTAK(TQ2)-OH) [Custom #1]
number of the extracellular vesicles (Example 49, 6×10^5 particles, 3 μg of protein at x1): 1.04×10^6
expected value Δλ per particle (value obtained by subtracting BG) at a concentration of x1 [3]: 1.7373
number of the extracellular vesicles [3]: 3.47×10^5 /μg of protein
Particle Expected value λ [4]: 0.831
Particle Number of positives [4]: 1,240
Particle Positive ratio [4]: 0.5644
Particle Expected value λ [5]: 0.06966
Particle Number of positives [5]: 165
Particle Positive ratio [5]: 0.06729
Particle Expected value λ [6]: 0.03312
Particle Number of positives [6]: 89
Particle Positive ratio [6]: 0.03258
Particle Expected value λ [7]: 0.01344
Particle Number of positives [7]: 41
Particle Positive ratio [7]: 0.01335
Particle Expected value λ [8]: 0.01169
Particle Number of positives [8]: 30
Particle Positive ratio [8]: 0.01162
Particle Expected value Δλ [9]: 0.05749
Particle Δ Number of positives [9]: 137
Particle Δ Positive ratio [9]: 0.05587
Particle Expected value Δλ [10]: 0.02258
Particle Δ Number of positives [10]: 61
Particle Δ Positive ratio [10]: 0.02233
Particle Expected value Δλ [11]: 0.00424
Particle Δ Number of positives [11]: 13
Particle Δ Positive ratio [11]: 0.00423
Particle Expected value Δλ [12]: 0.00078
Particle Δ Number of positives [12]: 2
Particle Δ Positive ratio [12]: 0.00077
Particle Expected value Δλ [13]: 0.8022
Particle Δ Number of positives [13]: 1,212
Particle Δ Positive ratio [13]: 0.5517

[5-FAM]GGPLGLAGGK(TQ2)[OH] (5FAM-GGPLGLAGGK(TQ2)-OH) [Custom #2]
number of the extracellular vesicles [3]: 1.18×10^5 /μg of protein
number of the extracellular vesicles (Example 50, 6×10^5 particles, 2 μg of protein): 1.77×10^5
expected value Δλ per particle (value obtained by subtracting BG) at a concentration of x1 [14]: 0.2953
number of the extracellular vesicles [14]: 8.86×10^4 /μg of protein
Particle Expected value λ [4]: 0.2744
Particle Number of positives [4]: 557
Particle Positive ratio [4]: 0.24
Particle Expected value λ [5]: 0.09639
Particle Number of positives [5]: 246
Particle Positive ratio [5]: 0.09189
Particle Expected value λ [6]: 0.03784
Particle Number of positives [6]: 181
Particle Positive ratio [6]: 0.03714
Particle Expected value λ [7]: 0.01211
Particle Number of positives [7]: 37
Particle Positive ratio [7]: 0.01204
Particle Expected value λ [8]: 0.00551
Particle Number of positives [8]: 17
Particle Positive ratio [8]: 0.00549
Particle Expected value Δλ [15]: 0.2716
Particle Δ Number of positives [15]: 552
Particle Δ Positive ratio [15]: 0.2378
Particle Expected value Δλ [9]: 0.09434
Particle Δ Number of positives [9]: 241
Particle Δ Positive ratio [9]: 0.09003
Particle Expected value Δλ [10]: 0.03678
Particle Δ Number of positives [10]: 176
Particle Δ Positive ratio [10]: 0.03611
Particle Expected value Δλ [11]: 0.01047
Particle Δ Number of positives [11]: 32
Particle Δ Positive ratio [11]: 0.01041
Particle Expected value Δλ [12]: 0.00388
Particle Δ Number of positives [12]: 12
Particle Δ Positive ratio [12]: 0.00388
Particle Expected value λ [16]: 0.1892
Particle Number of positives [16]: 1,235
Particle Positive ratio [16]: 0.1723
Particle Expected value λ [17]: 0.1044
Particle Number of positives [17]: 643
Particle Positive ratio [17]: 0.09911
Particle Expected value λ [18]: 0.06097
Particle Number of positives [18]: 385
Particle Positive ratio [18]: 0.05915
Particle Expected value λ [19]: 0.03309
Particle Number of positives [19]: 225
Particle Positive ratio [19]: 0.03255
Particle Expected value λ [20]: 0.02229
Particle Number of positives [20]: 166
Particle Positive ratio [20]: 0.02204
Particle Expected value λ [21]: 0.01639
Particle Number of positives [21]: 88
Particle Positive ratio [21]: 0.01625
Particle Expected value λ [22]: 0.2912
Particle Number of positives [22]: 1,744
Particle Positive ratio [22]: 0.2526
Particle Expected value Δλ [23]: 0.1853
Particle Δ Number of positives [23]: 1,212
Particle Δ Positive ratio [23]: 0.1691
Particle Expected value Δλ [24]: 0.1004
Particle Δ Number of positives [24]: 620
Particle Δ Positive ratio [24]: 0.09556
Particle Expected value Δλ [25]: 0.05722
Particle Δ Number of positives [25]: 362
Particle Δ Positive ratio [25]: 0.05562
Particle Expected value Δλ [26]: 0.02966
Particle Δ Number of positives [26]: 202
Particle Δ Positive ratio [26]: 0.02922
Particle Expected value Δλ [27]: 0.01917
Particle Δ Number of positives [27]: 143
Particle Δ Positive ratio [27]: 0.01899
Particle Expected value Δλ [28]: 0.01208
Particle Δ Number of positives [28]: 65
Particle Δ Positive ratio [28]: 0.01201
Particle Expected value Δλ [29]: 0.2868
Particle Δ Number of positives [29]: 1,721
Particle Δ Positive ratio [29]: 0.2493
Particle Expected value λ [1]: 0.2899
Particle Positive ratio [1]: 0.2517
Particle Expected value λ [2]: 0.3046
Particle Positive ratio [2]: 0.2626

Source: patent US20250290928A1, “METHOD, KIT AND DEVICE FOR DETECTING EXTRACELLULAR VESICLES” (priority 2022, published 2025)
